According to patent publication EP4585616A1, “ANTIBODY CAPABLE OF SPECIFICALLY BINDING TO ROR1, […] THEREOF, AND PREPARATION METHOD THEREFOR AND USE THEREOF” (Hefei Institutes of Physical Science, Chinese Academy of …, priority 2022, dated 2024):
Like-named read-outs stand apart in the source and are kept apart here.

Assays:
[1] = biological target: T1, ROR1 extracellular segment sequence (including transmembrane) on CHO cells (human, UniProt Q01973 30-472); test: FACS, ROR1 transferred onto CHO cell surface (summing up of Example 9)
T1 construct: Cloned into pCDNA3.1 and transfected into CHO cells; also called CHO-ROR1 (extracellular segment); CHO-ROR1
T1 sequence (Q01973 30-472 limits assumed): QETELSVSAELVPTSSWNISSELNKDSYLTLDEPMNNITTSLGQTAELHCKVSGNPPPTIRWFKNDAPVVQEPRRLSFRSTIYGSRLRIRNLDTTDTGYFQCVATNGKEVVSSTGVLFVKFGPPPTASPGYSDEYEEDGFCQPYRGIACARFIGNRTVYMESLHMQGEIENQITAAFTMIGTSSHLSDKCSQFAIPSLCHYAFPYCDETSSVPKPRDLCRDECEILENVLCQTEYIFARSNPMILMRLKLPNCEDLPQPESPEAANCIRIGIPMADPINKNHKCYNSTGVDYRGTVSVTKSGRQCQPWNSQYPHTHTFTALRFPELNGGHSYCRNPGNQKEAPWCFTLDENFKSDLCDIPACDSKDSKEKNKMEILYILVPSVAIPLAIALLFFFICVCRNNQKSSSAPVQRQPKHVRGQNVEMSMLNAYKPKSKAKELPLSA

[2] = biological target: T1, ROR1 extracellular segment sequence …; test: FACS, CHO-ROR1 (extracellular segment) cells
[3] = biological target: T2, Extracellular domain of human ROR1 protein (ROR1-ECD) (human, UniProt Q01973 30-403); test: ELISA, plate-coated ROR1-ECD
T2 construct: Expressed in HEK293T cells; also called human ROR1-ECD; purified human ROR1 protein extracellular segment
T2 sequence (Q01973 other isoform, or with tags, fused parts or gaps): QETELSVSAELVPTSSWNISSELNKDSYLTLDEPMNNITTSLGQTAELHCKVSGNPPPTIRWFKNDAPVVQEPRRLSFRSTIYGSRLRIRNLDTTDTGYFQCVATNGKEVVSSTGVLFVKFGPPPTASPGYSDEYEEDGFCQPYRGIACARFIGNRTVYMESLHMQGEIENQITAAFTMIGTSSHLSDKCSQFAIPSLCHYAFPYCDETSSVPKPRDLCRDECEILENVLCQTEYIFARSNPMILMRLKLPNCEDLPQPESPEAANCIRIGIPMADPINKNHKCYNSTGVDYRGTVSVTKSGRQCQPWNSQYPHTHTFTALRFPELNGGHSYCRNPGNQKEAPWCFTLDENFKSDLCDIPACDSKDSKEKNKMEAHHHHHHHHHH

[4] = biological target: T3, ROR1 extracellular segment with Ig-like domain removed on CHO cells (human, UniProt Q01973 30-472, limits assumed); test: FACS, CHO-ROR1 (with Ig-like domain removed) cells
T3 construct: Transfected into CHO cells; also called CHO-ROR1 (with Ig-like domain removed)
T3 sequence (Q01973 other isoform, or with tags, fused parts or gaps limits assumed): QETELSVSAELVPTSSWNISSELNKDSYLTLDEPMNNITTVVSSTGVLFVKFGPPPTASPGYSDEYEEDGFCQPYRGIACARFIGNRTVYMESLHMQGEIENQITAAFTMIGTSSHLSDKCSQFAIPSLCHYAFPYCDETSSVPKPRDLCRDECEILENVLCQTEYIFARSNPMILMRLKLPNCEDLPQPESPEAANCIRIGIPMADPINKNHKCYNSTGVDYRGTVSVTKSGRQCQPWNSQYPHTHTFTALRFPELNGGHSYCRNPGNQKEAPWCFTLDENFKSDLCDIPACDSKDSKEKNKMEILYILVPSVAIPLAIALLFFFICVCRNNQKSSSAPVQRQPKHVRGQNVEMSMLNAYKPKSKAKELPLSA

[5] = biological target: T4, ROR1 extracellular segment with Kringle domain removed on CHO cells (human, UniProt Q01973 30-472, limits assumed); test: FACS, CHO-ROR1 (with Kringle domain removed) cells
T4 construct: Transfected into CHO cells; also called CHO-ROR1 (with Kringle domain removed)
T4 sequence (Q01973 other isoform, or with tags, fused parts or gaps limits assumed): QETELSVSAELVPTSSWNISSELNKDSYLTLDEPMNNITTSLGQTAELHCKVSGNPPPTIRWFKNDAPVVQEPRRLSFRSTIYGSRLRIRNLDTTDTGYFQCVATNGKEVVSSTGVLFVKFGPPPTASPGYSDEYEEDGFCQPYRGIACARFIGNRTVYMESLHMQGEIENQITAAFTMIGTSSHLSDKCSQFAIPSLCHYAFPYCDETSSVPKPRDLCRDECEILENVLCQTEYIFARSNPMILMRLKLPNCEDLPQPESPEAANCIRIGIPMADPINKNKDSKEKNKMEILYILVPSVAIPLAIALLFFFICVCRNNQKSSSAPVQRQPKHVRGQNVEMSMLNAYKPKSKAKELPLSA

[6] = biological target: T5, human ROR1 on the surface of tumor cells (human, UniProt Q01973 30-937); test: FACS, MDA-MB-231 cells
T5 construct: whole, on cells; also called ROR1 on the cell surface; tumor cell ROR1
T5 sequence (Q01973 30-937): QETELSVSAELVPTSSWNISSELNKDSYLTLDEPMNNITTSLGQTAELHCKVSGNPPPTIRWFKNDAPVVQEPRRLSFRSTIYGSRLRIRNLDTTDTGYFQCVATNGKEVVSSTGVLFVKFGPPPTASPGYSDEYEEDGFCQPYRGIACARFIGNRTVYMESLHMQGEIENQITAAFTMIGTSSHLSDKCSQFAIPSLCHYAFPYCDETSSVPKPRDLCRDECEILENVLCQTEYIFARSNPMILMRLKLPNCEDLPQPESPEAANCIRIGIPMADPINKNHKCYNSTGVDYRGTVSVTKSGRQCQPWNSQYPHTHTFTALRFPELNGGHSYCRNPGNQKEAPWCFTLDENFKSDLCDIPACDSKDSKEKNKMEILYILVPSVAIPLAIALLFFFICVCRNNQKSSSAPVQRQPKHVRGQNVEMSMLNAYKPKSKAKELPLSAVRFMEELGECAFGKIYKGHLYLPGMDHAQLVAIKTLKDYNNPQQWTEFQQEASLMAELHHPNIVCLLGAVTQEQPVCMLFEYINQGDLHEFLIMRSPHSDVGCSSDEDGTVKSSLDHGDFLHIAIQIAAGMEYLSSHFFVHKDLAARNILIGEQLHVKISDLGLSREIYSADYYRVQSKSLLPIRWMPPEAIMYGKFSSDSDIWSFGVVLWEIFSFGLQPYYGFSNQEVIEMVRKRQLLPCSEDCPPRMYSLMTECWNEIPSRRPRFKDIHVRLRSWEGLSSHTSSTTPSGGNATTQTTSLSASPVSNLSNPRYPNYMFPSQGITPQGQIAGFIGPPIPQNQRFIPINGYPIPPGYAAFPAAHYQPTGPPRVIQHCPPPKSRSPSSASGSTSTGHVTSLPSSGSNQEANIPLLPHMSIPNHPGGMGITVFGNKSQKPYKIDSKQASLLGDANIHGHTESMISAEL

[7] = biological target: T6, ROR1 extracellular segment with Frizzled domain removed on CHO cells (human, UniProt Q01973 30-472, limits assumed); test: FACS, CHO-ROR1 (with Frizzled domain removed) cells
T6 construct: Transfected into CHO cells; also called CHO-ROR1 (with Frizzled domain removed)
T6 sequence (Q01973 other isoform, or with tags, fused parts or gaps limits assumed): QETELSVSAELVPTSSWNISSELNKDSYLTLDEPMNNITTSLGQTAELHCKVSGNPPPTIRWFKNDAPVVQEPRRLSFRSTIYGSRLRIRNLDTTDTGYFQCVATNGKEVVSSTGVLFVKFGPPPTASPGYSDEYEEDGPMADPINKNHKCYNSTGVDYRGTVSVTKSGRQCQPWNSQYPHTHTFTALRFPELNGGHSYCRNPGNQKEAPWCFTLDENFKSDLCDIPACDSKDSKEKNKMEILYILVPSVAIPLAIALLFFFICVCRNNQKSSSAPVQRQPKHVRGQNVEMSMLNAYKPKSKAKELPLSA

[8] = biological target: T5, human ROR1 on the surface of tumor cells; test: FACS, NCI-H226 cells
[9] = biological target: T5, human ROR1 on the surface of tumor cells; test: FACS, NCI-H226 cells; remark: listed apart in the source
[10] = biological target: T2, Extracellular domain of human ROR1 …; test: ELISA, plate-coated ROR1-ECD; remark: listed apart in the source
[11] = biological target: T5, human ROR1 on the surface of tumor cells; test: FACS, MDA-MB-231 cells; remark: listed apart in the source
[12] = biological target: T1, ROR1 extracellular segment sequence …; test: FACS, CHO-ROR1 (extracellular segment) cells; remark: listed apart in the source
[13] = biological target: T5, human ROR1 on the surface of tumor cells; test: cell-based or functional assay

Binder	EC50 [1] [nM]	EC50 [2] [nM]	EC50 [3] [nM]	EC50 [4] [nM]	EC50 [5] [nM]	EC50 [6] [nM]	EC50 [7] [nM]	EC50 [8] [nM]	EC50 [9] [nM]	EC50 [10] [nM]	EC50 [11] [nM]	EC50 [12] [nM]	in vitro anti-proliferative activity IC50, HCC827 cells (CCK8) [13] [nM]	in vitro anti-proliferative activity IC50, HCC1187 cells (CCK8) [13] [nM]	in vitro anti-proliferative activity IC50, HT-29 cells (CCK8) [13] [nM]	in vitro anti-proliferative activity IC50, MCF-7 cells (CCK8) [13] [nM]	in vitro anti-proliferative activity IC50, MDA-MB-231 cells (CCK8) [13] [nM]	in vitro anti-proliferative activity IC50, NCI-H446 cells (CCK8) [13] [nM]	in vitro anti-proliferative activity IC50, NCI-N87 cells (CCK8) [13] [nM]
mAb004c (antibody, V domains shown, Human-mouse chimeric) VH: EVQLVESGGGLVQPKGSLKLSCAASGFTFNTYAMHWVRQAPGKGLEWVARIRSKSSNFATYYADSVRDRFTISRDDSQSMLYLQMNNLKTEDTAMYYCVRGYGPSYFSLDYWGQGTSVTVSS VL: DVVMTQTPLSLPVSLGDQASISCRSSQSLVHSNGNTYLHWYLQKPGQSPKLLIYKVSNRFSGVPDRFSGSGSGTDFTLKINRVEAEDLGVYFCSQSTHAIYTFGGGTKLEIK	< 2	0.32	0.012	0.35	0.84	0.4	1.37	0.46	–	–	–	–	–	–	–	–	–	–	–
mAb003c (antibody, V domains shown, Human-mouse chimeric) VH: EVQLVESGGGLVKPGGSLKLSCAASGFTFSSYAMSWVRQTPEKRLEWVATISDGGSYTYYPDSVKGRFTISRDNAKNNLYLQMSHLKSEDTDMYYCVRGGYYYNLYAMDYWGQGTSVTVSS VL: DIVLTQSPASLAVSLGQRAIISCKASQSVSFAGTSLMHWYQQKPGQQPKLLIYRASNLEAGVPTRFSGSGSRADFTLNIHPVEEDDAATYYCQQSGEYPWTFGGGTKLEIK	< 2	–	–	–	1.74	–	1.78	–	0.76	0.013	1.1	1.47	–	–	–	–	–	–	–
mAb005c (antibody, V domains shown, Human-mouse chimeric) VH: EVQLVESGGGLVKPGGSLKLSCAASGFTFNSYAMSWVRQTPEKRLEWVATISDGGSYTYYPDNEKGRFTISRDNAKNNLYLQMSHLKSEDTAIYYCVRGGYYYNLYAMDYWGQGTSVTVSS VL: DIVLTQSPASLAVSLGQRAIISCKASQSVSFPGTSLMHWYQQKPGQQPKLLIYRASNLEAGVPTRFSGSGSRTDFTLNIHPVEEDDTATYYCQQSREYPWTFGGGTQLEIK	< 2	0.57	0.009	–	0.91	0.24	1.02	0.18	–	–	–	–	–	–	–	–	–	–	–
mAb001c-vcMMAE (antibody, human IgG1, DAR about 3.81, V domains shown, vcMMAE on cysteines after TCEP reduction, positions not given) VH: EVRLQQSGPVLVKPGASVKMSCKASGYTFTDYNLHWVKQSHRQSLEWIGYINPNHDGTSYNQKFQGKATLTVDRSSSTAYMEFRSLTSEDSAVYYCARRVRTGTGLDDWGQGTTLTVSS VL: DVLMTQSPLSLPVSLGDQASISCRSSHNIVHTNGNTYLEWYLQKPGQSPKLLIYKVSNRFSGVPDRFSGSGSGTYFTLTISRVEAEDLGVYYCFQGSRFPYTFGGGTKLEIK	–	–	–	–	–	–	–	–	–	–	–	–	< 10	< 10	< 10	> 100	< 10	< 10	< 10
mAb001c (antibody, V domains shown, Human-mouse chimeric; also called human-mouse chimeric antibody mAb001c) VH: EVRLQQSGPVLVKPGASVKMSCKASGYTFTDYNLHWVKQSHRQSLEWIGYINPNHDGTSYNQKFQGKATLTVDRSSSTAYMEFRSLTSEDSAVYYCARRVRTGTGLDDWGQGTTLTVSS VL: DVLMTQSPLSLPVSLGDQASISCRSSHNIVHTNGNTYLEWYLQKPGQSPKLLIYKVSNRFSGVPDRFSGSGSGTYFTLTISRVEAEDLGVYYCFQGSRFPYTFGGGTKLEIK	< 2	0.32	0.012	0.36	0.38	0.15	0.85	0.11	–	–	–	–	–	–	–	–	–	–	–
mAb006c (antibody, V domains shown, Human-mouse chimeric) VH: EVQLQQSGPELVKPGASLKMSCKASGYTFPDYNIHWVKQSHGKSLEWIGYINPNNGGTTYNQKFKGKATLTVSKSSSTAYMELRSLTSEDSAVYSCARRGYGSSYAMDYWAQGTSVTVSS VL: DVLMTQSPLSLPVSLGDQASISCRSSHIIVHTNGNTYLEWYLQKPGQSPKLLIYKVSNRFSGVPDRFSGSGSGTDFTLKISRVEAEDLGVYYCFQGSRVPYTFGGGTKLEIK	< 2	–	–	0.37	1.59	–	1.64	–	0.28	0.009	0.4	0.71	–	–	–	–	–	–	–
mAb007c (antibody, V domains shown, Human-mouse chimeric) VH: EVQLQQSGPELVKPGASVKMSCKASGYTFTDYNMHWVKQSHGKSLEWIGYINPNNGGTSYNQKFKGKATLTVNKSSSTAYMELRSLTSDDSAVYYCARRGYGSGYAMDYWGQGTSVTVSS VL: DVLMTQTPLSLPVSLGDQASISCRSSQSIVHTNGNTYLEWYLQNPGQSPKLLIYKVFNRFSGVPDRFSGSGSGTDFTLKISRVEAEDLGVYYCFQGSLFPYTFGGGTKLEIK	< 2	–	–	0.36	1.03	–	1.25	–	0.28	0.012	0.25	0.54	–	–	–	–	–	–	–
mAb008c (antibody, V domains shown, Human-mouse chimeric) VH: EVQLQQSGPELVKPGASVKMSCKASEYTFTDYNMHWVKQSHGKSLEWIGYINPNNGGTTYNQKFKGKATLTVNKSSSTAYMELRSLTSDDSAVYYCARRGYGSGYAMDYWGQGASVTVSS VL: DVLLTQTPLSLPVSLGDRASISCTSSQSIVHTNGNTYLEWYLQNPGQSPKLLIYKVSNRFSGVPDRFSGSGSGTDFTLKISRVEAEDLGVYYCFQGSLFPYTFGGGTKLEIK	< 2	–	–	0.37	1.5	–	1.67	–	0.36	0.02	0.78	0.7	–	–	–	–	–	–	–
mAb009c (antibody, V domains shown, Human-mouse chimeric) VH: EVQLQQSGPELVKPGASLKLSCKASGYTFPDYNIHWVKQSHGKSLEWIGYINPNNGNTNYNQKFEGKATLTVSKSSSTAYMELRSLTSDDSAVYSCARRGYGSSYAMDFWGQGTSVTVSS VL: DVLMTQTPLSLPVSLGNQASISCRSSHIIVHTNGNTYLEWYLQKPGQSPKLLIYKVSNRFSGVPDRFSGSGSGTDFTLKISRVEAEDLGVYYCFQGSRVPYTFGGGTKLEIK	< 2	–	–	0.45	1.62	–	1.68	–	0.25	0.017	0.33	0.79	–	–	–	–	–	–	–
UC-961 (antibody, V domains shown, Control antibody of US20150232569A1, made with human IgG1 heavy chain constant region and Kappa chain constant region) VH: QVQLQESGPGLVKPSQTLSLTCTVSGYAFTAYNIHWVRQAPGQGLEWMGSFDPYDGGSSYNQKFKDRLTISKDTSKNQVVLTMTNMDPVDTATYYCARGWYYFDYWGHGTLVTVSS VL: DIVMTQTPLSLPVTPGEPASISCRASKSISKYLAWYQQKPGQAPRLLIYSGSTLQSGIPPRFSGSGYGTDFTLTINNIESEDAAYYFCQQHDESPYTFGEGTKVEIK	–	0.74	0.013	–	0.79	0.21	1.11	0.13	–	–	–	–	–	–	–	–	–	–	–
